In patent US20230279451A1, “METHODS FOR THE BIOCATALYTICAL MANUFACTURING OF DIHYDROCHALCONES” (SYMRISE AG, priority 2019, published 2023):
“Also recorded” adds a separate entry of the source.

Experiment: Biotransformation of 3-hydroxyphloretin with lysed E. coli BL21(DE3) cells expressing MxSafC wild-type or variants (LC-MS)
Assay type: biochemical
Conditions: 3 mM 3-hydroxyphloretin, 3 mM S-adenosylmethionine, 25° C., 24 hours; for product specificity towards hesperetin dihydrochalcone: compared with wild-type MxSafC, FIG. 10 dark grey; for enzyme activity (conversion of 3-hydroxyphloretin): FIG. 10 light grey bars
Excerpt: FIG. 10: Biotransformation of 3-Hydroxyphloretin with lysed E. coli BL21 (DE 3) cells, which express MxSafC (wild-type (wt), cf. SEQ ID NOs: 13, 14, 55), or specific variants or mutants thereof (cf. SEQ ID NOs: 56 to 76). Hesperetin dihydrochalcone as well as homoeriodictyol (HED) dihydrochalcone are the products. Conversion of 3-hyroxyphloretin (30HP) shown in light grey, product specificity towards hesperetin dihydrochalcone is shown in dark grey.
MxSafC mutant variants correspond to SEQ ID NOs: 56 to SEQ ID NO: 76. These were synthesized (BioCat GmbH, Heidelberg, Germany) and cloned into pET28a between NcoI and HindIII restriction sites, respectively. SEQ ID NOs: 13, 14 and 55 show the respective wild-type sequence. By artificial design, certain mutants were created to optimize the activity and/or specificity of the MxSafC enzyme. Interesting single, double and quintuple mutants could be identified, as shown in detail in the results in FIG. 10.
First, various positions within MxSafC (SEQ ID NO: 14) were randomly mutated. All mutants were characterized and checked for activity. In a second round, targeted mutations and combinations thereof were tested in an iterative manner to identify suitable mutants for commercial purposes that have a good activity and conversion rate, but at the same time a good or even improved product specificity. Indeed, certain variants could be identified that fulfill these needs.
30 E. coli BL21(DE3) cells, each containing a plasmid from Table 1, were used to inoculate 5 ml of LB medium (Carl Roth GmbH, Karlsruhe, Germany) with the corresponding antibiotic. After incubation for 16 h (37° C., 200 rpm), 20 ml TB medium (Carl Roth GmbH, Karlsruhe, Germany) were inoculated with an OD600 of 0.1 from these cultures. These main cultures were incubated (37° C., 200 rpm) until an OD600 of 0.5-0.8 was achieved. After addition of 1 mM isopropyl-β-D-thiogalactopyranoside, the cultures were incubated for a further 16 h (22° C., 200 rpm). The main culture was centrifuged (10 min, 10,000 rpm), the pelleted cells were decomposed using the B-PER protein extraction reagent (Thermo Fisher Scientific, Bonn, Germany) according to the manufacturers specifications. After additional centrifugation (10 min, 14,000 rpm) the supernatant was mixed with 3 mM 3-hydroxyphloretin, 3 mM S-adenosylmethionine, 0.1 mM MgCl2. The reaction mixture was incubated at 25° C. for 24 hours. After stopping the assay with 20% trichloroacetic acid ([…] final concentration) the sample was centrifuged and the supernatant used for LC-MS analysis.

Row | Molecule | product specificity towards hesperetin dihydrochalcone | enzyme activity (conversion of 3-hydroxyphloretin)
1 | L92Q: variant of the O-methyltransferase from Myxococcus xanthus (MxSafC_L92Q) (protein, MxSafC_L92Q) MIHHVELTQSVLQYIRDSSVRDNDILRDLREETSKLPLRTMQIPPEQGQLLSLLVRLIGARKTLEVGVFTGYSTLCAALALPADGRVIACDQSEEWVSIARRYWQRAGVADRIEVRLGDAHHSLEALVGSEHRGTFDLAFIDADKESYDFYYEHALRLVRPGGLIILDNTLWSGKVADPSVVGDPETDSLRRINAKLLTDERVDLSMLPIADGLTLARKR | nearly balanced | –
2 | S173H: variant of the O-methyltransferase from Myxococcus xanthus (MxSafC_S173H) (protein, MxSafC_S173H) MIHHVELTQSVLQYIRDSSVRDNDILRDLREETSKLPLRTMQIPPEQGQLLSLLVRLIGARKTLEVGVFTGYSTLCAALALPADGRVIACDLSEEWVSIARRYWQRAGVADRIEVRLGDAHHSLEALVGSEHRGTFDLAFIDADKESYDFYYEHALRLVRPGGLIILDNTLWHGKVADPSVVGDPETDSLRRINAKLLTDERVDLSMLPIADGLTLARKR | performed better than the wild-type | particularly favorable
3 | D119P: variant of the O-methyltransferase from Myxococcus xanthus (MxSafC_D119P) (protein, MxSafC_D119P) MIHHVELTQSVLQYIRDSSVRDNDILRDLREETSKLPLRTMQIPPEQGQLLSLLVRLIGARKTLEVGVFTGYSTLCAALALPADGRVIACDLSEEWVSIARRYWQRAGVADRIEVRLGPAHHSLEALVGSEHRGTFDLAFIDADKESYDFYYEHALRLVRPGGLIILDNTLWSGKVADPSVVGDPETDSLRRINAKLLTDERVDLSMLPIADGLTLARKR | nearly balanced | –
4 | W96A: variant of the O-methyltransferase from Myxococcus xanthus (MxSafC_W96A) (protein, MxSafC_W96A) MIHHVELTQSVLQYIRDSSVRDNDILRDLREETSKLPLRTMQIPPEQGQLLSLLVRLIGARKTLEVGVFTGYSTLCAALALPADGRVIACDLSEEAVSIARRYWQRAGVADRIEVRLGDAHHSLEALVGSEHRGTFDLAFIDADKESYDFYYEHALRLVRPGGLIILDNTLWSGKVADPSVVGDPETDSLRRINAKLLTDERVDLSMLPIADGLTLARKR | performed better than the wild-type | –
5 | T40P/S173H: double mutant variant of the O-methyltransferase from Myxococcus xanthus (MxSafC_T40P_S173H) (protein, MxSafC_T40P_S173H) MIHHVELTQSVLQYIRDSSVRDNDILRDLREETSKLPLRPMQIPPEQGQLLSLLVRLIGARKTLEVGVFTGYSTLCAALALPADGRVIACDLSEEWVSIARRYWQRAGVADRIEVRLGDAHHSLEALVGSEHRGTFDLAFIDADKESYDFYYEHALRLVRPGGLIILDNTLWHGKVADPSVVGDPETDSLRRINAKLLTDERVDLSMLPIADGLTLARKR | performed better than the wild-type; also recorded: a good specificity | a technically reasonable activity
6 | T40P: variant of the O-methyltransferase from Myxococcus xanthus (MxSafC_T40P) (protein, MxSafC_T40P) MIHHVELTQSVLQYIRDSSVRDNDILRDLREETSKLPLRPMQIPPEQGQLLSLLVRLIGARKTLEVGVFTGYSTLCAALALPADGRVIACDLSEEWVSIARRYWQRAGVADRIEVRLGDAHHSLEALVGSEHRGTFDLAFIDADKESYDFYYEHALRLVRPGGLIILDNTLWSGKVADPSVVGDPETDSLRRINAKLLTDERVDLSMLPIADGLTLARKR | performed better than the wild-type | particularly favorable
7 | M5: quintuple mutant of MxSafC combining mutation T40P/L92Q/W96A/D119P/S173H (protein, MxSafC_M5, quintuple mutant of MxSafC combining mutation T40P/L92Q/W96A/D119P/S173H) MIHHVELTQSVLQYIRDSSVRDNDILRDLREETSKLPLRPMQIPPEQGQLLSLLVRLIGARKTLEVGVFTGYSTLCAALALPADGRVIACDQSEEAVSIARRYWQRAGVADRIEVRLGPAHHSLEALVGSEHRGTFDLAFIDADKESYDFYYEHALRLVRPGGLIILDNTLWHGKVADPSVVGDPETDSLRRINAKLLTDERVDLSMLPIADGLTLARKR | performed better than the wild-type | –
